Source: patent US7960115B2, “DNA binding protein” (Wright State University, priority 2001, dated 2011)

How the values were obtained:
[1] = target: T1, DUE-B binding to dsDNA derived from the DUE sequence (Homo sapiens, UniProt Q8TEA8); test: Fluorescence polarization assay of DUE-B binding to dsDNA
T1 construct: 6his (N); V5 (N); made in house; host or cells: baculovirus / SF9 insect cells
T1 sequence (Q8TEA8 1-209): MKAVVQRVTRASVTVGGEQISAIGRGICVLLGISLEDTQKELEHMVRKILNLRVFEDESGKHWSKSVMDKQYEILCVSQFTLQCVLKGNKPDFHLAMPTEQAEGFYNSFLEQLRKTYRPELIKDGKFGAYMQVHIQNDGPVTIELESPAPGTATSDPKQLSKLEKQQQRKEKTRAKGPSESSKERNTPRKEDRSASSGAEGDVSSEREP
Excerpt: Described herein is the first generation of a novel assay for determining the effects of molecules on the association of DUE-B with double stranded DNA (dsDNA). This assay uses fluorescence polarization to measure the interaction of DUE-B with dsDNA. This assay consists of 4 components: • a) a dsDNA derived from the DUE sequence:
• Both the sense and antisense strands are labeled with FITC at the 3′ end using a 6 carbon spacer. • b) Purified DUE-B. Human DUE-B tagged at the amino terminus with the 6his and V5 tags is synthesized in baculovirus and purified using Ni^2+-Sepharose™ chromatography. • c) Reaction buffer (1×): […] Tris HCl (pH 7.5), 800 mM NaCl, 10 mM EDTA, 100 mM β-mercaptoethanol, 1% (w/v) Tween-20™. • d) Fluorescence polarization plate reader (Tecan Polarion™ or other equivalent device)
A mastermix is prepared consisting of 1× reaction buffer, 2 nM labeled oligo and 0.125 or 0.250 ug DUE-B per 100 ul of mastermix. Compounds (in this case steroids) are added to the bottom of a 96 well plate. 100 ul of mastermix is added to each well and allowed to equilibrate for 30 sec. Fluorescence polarization is then measured.
In FIG. 23A, the effect of increasing concentrations of DUE-B on the polarization of dsDNA was assessed. As expected, polarization of the dsDNA becomes saturated as the DUE-B protein concentration increases. […]

[2] = ATPase activity by thin layer chromatography; assay type: biochemical
Experimental: In FIG. 11, DUE-B expressed in baculovirus infected insect cells was chromotographed as in FIG. 8. To locate the eluted DUE-B, fractions were assayed by ELISA using DUE-B antibody or 6his antibody. ATPase activity was monitored by thin layer chromatography of alternate fractions incubated with gamma-^32P-ATP. […] In FIG. 12, time courses of ATPase activity were measured for three concentrations of DUE-B protein.
Purified DUE-B (200-1000 ng) expressed in bacteria or insect cells, or cell extracts from HeLa cells (˜500 ng) or Xenopus oocytes (˜500 ng), were chromatographed on a one-meter Sephacryl™ S-200 column. Protein elution was monitored by Western blot or by ELISA using antibodies to DUE-B or the his6 tag. ATPase activity was monitored by thin layer chromatography on PEI cellulose (Patrick, S. M., et al., Biochem. Biophys. Acta 1354:279-290, 1997). RNA was isolated using an RNAeasy kit (Qiagen) and DUE-B mRNA expression was monitored by Northern blotting of total RNA electrophoresed on denaturing formaldehyde/agarose gels using a DUE-B cDNA probe labeled with alpha-^32P-dCTP by random primer extension.

[3] = test system: DNA replication in Xenopus oocyte extract; test: Replication in Xenopus oocyte extracts; assay type: biochemical, Xenopus laevis

## C[C@]12CC[C@@H]3c4ccc(O)cc4CC[C@H]3[C@@H]1CC(O)C2O (some centres unmarked) [Steroid E2850, 1,3,5(10)-estratrien-3,16,17-triol]
[1]; retest in two different concentrations of DUE-B, FIG. 24B
  effect on the dsDNA binding of DUE-B on retest: stimulatory effect of E2850 was duplicated
[1]; steroid at 10 uM, FIG. 24A
  increase in polarization of dsDNA by DUE-B: 100%

B1: DUE-B: human DNA Unwinding Element binding protein (SEQ ID NO:2), baculovirus expressed, binds the c-myc replication origin DUE (protein, listed as Homo sapiens)
chain: T1 sequence (Q8TEA8 1-209)
[2]; baculovirus expressed DUE-B, FIG. 12
  ATPase activity: approximately 30 fmol gamma-32P-ATP hydrolyzed
[2]; present assay conditions
  ATP hydrolyzed: > 0.5 fmol ATP per minute per fmol protein
[3]; double stranded DNA preincubated in extract, DUE-B added with alpha-32P-dCTP, FIG. 18A
  effect on DNA replication, time course: transiently inhibited DNA replication
[3]; oocyte extract, FIG. 20D
  effect on replication of single stranded DNA: does not inhibit replication of single stranded DNA
[3]; preincubated 30' with the extract versus added simultaneously with sperm chromatin, FIG. 19
  effect on replication of sperm chromatin: more effective at inhibiting replication
[3]; sperm chromatin, anti-MCM7 immunoblot, FIG. 20C
  effect on MCM7 loading (pre-RC formation) on chromatin: does not inhibit MCM7 loading
